The values that follow come from US7763418B2, “Detection of Rho proteins” (Cytoskeleton, Inc., priority 2005, dated 2010).

The experiment deals with T1, Rac1 (61L) binding to POSH-GBD (Homo sapiens, UniProt P63000, Q61L).
T1 construct: His; purchased Cytoskeleton Inc. R6101
In words: Rac1:POSH G-LISA competition (drug discovery application). On the procedure:
Active Rho protein (typically 7-15 μg total cell lysate or 1-5 ng of constitutively active recombinant protein) were either added directly to the effector bound G-LISA plate (Rac1 and Cdc42 G-LISAs) or diluted with an equal volume of Binding Buffer (20% PEG 8000, Sigma, St. Louis, Mo.) prior to adding to effector bound plates (RhoA G-LISA). The reactions were incubated for 30 minutes at 4° C. on a microtiter titer plate shaker after which wells were washed once with 200 μl of PBST (PBS pH 7.2, 0.05% Tween-20) and immediately treated with 200 μl of Antigen Presenting Buffer (1% trichloroacetic acid (TCA)) for 2-5 minutes at room temperature. Wells were then washed three times with 200 μl each of PBST and primary antibody is added typically at 1 μg/ml (RhoA specific), 0.25 μg/ml (Rac1 specific), 1 μg/ml (Cdc42 specific) and incubated at room temperature for 45 minutes (incubation at 4° C. gave similar results). Wells are washed three times with 200 μl each of PBST and incubated with appropriate secondary antibody for 45 minutes at room temperature (incubation at 4° C. gave similar results). […] After three washes each of 200 μl PBST the activated Rho proteins are detected using absorbance or luminescence detection as described below. […]

B1: ROCK-GST: RhoA effector ROCK-GBD peptide, negative control inhibitor in Rac1:POSH G-LISA (protein)
chain: EAEQYFSTLYKTQVKELKEEIEEKNRENLKKIQELQNEKETLATQLDLAETKAESEQLARGLLEEQYFELTQESKKAASRNRQEITDKDHTVSRLEEANSMLTKDIEILRRENEELTEKMKKAEEEYKLEKEEEISNLKAAFEKNINTERTLKTQAVNKLAEIMNRKDFKIDRKKANT
modifications: left off: a dimerising Fc or GST
Take B1: the “IC50 relative to PAK” value is given as “approximately 80 times”.
